Test results reported in US12577571B2, “Mutant DNase1L3 with improved serum half-life” (Texas Tech University System, priority 2019, dated 2026).

B1: Dnase1: DNase I protein of the background art; poorly digests chromatin DNA (protein, UniProt P24855 23-282, looked up)
Deoxyribonuclease-1: LKIAAFNIQTFGETKMSNATLVSYIVQILSRYDIALVQEVRDSHLTAVGKLLDNLNQDAPDTYHYVVSEPLGRNSYKERYLFVYRPDQVSAVDSYYYDDGCEPCGNDTFNREPAIVRFFSRFTEVREFAIVPLHAAPGDAVAEIDALYDVYLDVQEKWGLEDVMLMGDFNAGCSYVRPSQWSSIRLWTSPTFQWLIPDSADTTATPTHCAYDRIVVAGMLLRGAVVPDSALPFNFQAAYGLSDQLAQAISDHYPVEVMLK
B2: PEGylated Dnase1L3: Purified Dnase1L3 conjugated to PEG (PEG-maleimide); band shifts from 36 kDa to 41 kDa (conjugate, UniProt Q13609 21-305, looked up)
Deoxyribonuclease gamma: MRICSFNVRSFGESKQEDKNAMDVIVKVIKRCDIILVMEIKDSNNRICPILMEKLNRNSRRGITYNYVISSRLGRNTYKEQYAFLYKEKLVSVKRSYHYHDYQDGDADVFSREPFVVWFQSPHTAVKDFVIIPLHTTPETSVKEIDELVEVYTDVKHRWKAENFIFMGDFNAGCSYVPKKAWKNIRLRTDPRFVWLIGDQEDTTVKKSTNCAYDRIVLRGQEIVSSVVPKSNSVFDFQKAYKLTEEEALDVSDHFPVEFKLQSSRAFTNSKKSVTLRKKTKSKRS
modifications: PEG-maleimide conjugate
notes: Purified Dnase1L3 conjugated to PEG (PEG-maleimide); band shifts from 36 kDa to 41 kDa

Key:
[1] = system: DNA present as chromatin or apoptotic bodies; settings: background, Sisirak et al 2016, Napirei et al 2009, Wilber et al 2002; cited from earlier work
[2] = system: plasmid DNA; assay: Plasmid DNA degradation by Dnase1L3 (agarose gel); assay type: biochemical; settings: increasing dilutions with 200 ng plasmid DNA, 30 min at 37° C., 200 mM Tris pH 7.4, 50 mM MgCl2, 20 mM CaCl2; 1% agarose gel
Description: FIGS. 1A to 1E show the results from the modified Dnase1L3 of the present invention. […] (FIG. 1A) Dnase1L3 was affinity purified with Nickel NTA agarose, then cleaved with Tobacco Etch Virus protease TEV protease. Cleaved Dnase1L3 was further purified by anion exchange and then by size exclusion chromatography. Fractions from the final size exclusion purification were resolved by SDS-PAGE and Coomassie stained. Fractions 7-9 show purified Dnase1L3 at the expected 36 kDa size. Molecular weight in kDa is shown. (FIG. 1B) The indicated amounts of purified Dnase1L3 were resolved by SDS-PAGE, transferred to nitrocellulose and probed with anti-Dnase1L3 primary antibody, anti-rabbit HRP secondary antibody and developed with enhanced chemiluminescence. (FIG. 1C) Recombinant, […] mM Tris pH 7.4, 50 mM MgCl2, 20 mM CaCl2 with or without 100 μM Dnase1L3 inhibitors fmoc-D-cyclohexylalanine (FCA) or Pontacyl Violet 6R (PV). Remaining plasmid DNA resolved on a 1% agarose gel. # indicates non-degraded DNA (i.e. supercoiled, nicked and linear DNA). The absence of DNA indicates degradation. (FIG. 1D) Purified Dnase1L3 was conjugated to PEG. Unconjugated Dnase1L3, PEGylated Dnase1L3 (PEG-D1L3), or free PEG were resolved by SDS-PAGE and visualized with Coomassie Blue. The 36 kDa band has increased in size to 41 kDa, indicating successful PEGylation. Molecular weight in kDa is shown. […]

Row | Molecule | digestion of DNA present as chromatin or apoptotic bodies [1] | endonuclease activity (degradation of plasmid DNA) [2]
1 | B1 | poorly digests | –
2 | B2 | – | potent endonuclease
